Target: Native (wild-type) human factor VIIa (human) (UniProt P08709)
Assay: cell-based or functional assay

Sequence of UniProt P08709 (P08709 213-466, chain 2 of 2, other chains not shown): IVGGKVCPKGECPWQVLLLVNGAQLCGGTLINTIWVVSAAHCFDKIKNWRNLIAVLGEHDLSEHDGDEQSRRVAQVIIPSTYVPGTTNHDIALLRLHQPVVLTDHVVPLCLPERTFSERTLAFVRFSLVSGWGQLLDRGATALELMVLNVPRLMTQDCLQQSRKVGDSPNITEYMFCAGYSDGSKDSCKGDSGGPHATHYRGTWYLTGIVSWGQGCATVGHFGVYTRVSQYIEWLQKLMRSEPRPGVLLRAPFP

Substance: Antithrombin III (ATIII) (from UniProt P01008 33-464)
- Relative first-order rate constants (ratio) of ATIII inhibition (ratio to wt-Factor VIIa): 1

From US20150044195A1
